According to the supplement of paper PMC6757056:
± gives the standard deviation of the averaged measurements.

B1: library; a variant is named by its letters at N, in order (parent)
chain: GCUGUCACCGGUGCUUGGUACGUUAUAUUCAGCCGGUCUGAUGAGUCUNNNNNNAGACGAAACAGC

Columns and labels:
(6R,S)-folinic acid [1] = variants of: B1; assay: FACS-Seq fitted mean relative fluorescence mCherry/BFP without ligand (log10 relative fluorescence); HEK293T overexpressing SLC46A1; higher = higher reporter protein expression; details: without (6R,S)-folinic acid; ligand present: no
Method in brief: (§1)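 Fluorescence comes from a normal fit to bin counts, normalized against controls. HEK293T libraries lentivirally given a ribozyme-switch mCherry reporter and an EF1α-BFP marker were enriched, incubated 48 h with or without ligand, and sorted by mCherry/BFP into 6 bins. Bin genomic DNA was PCR-amplified, barcoded and sequenced on MiSeq. The log10(mCherry/BFP) mean was scaled to five spiked-in control ribozymes.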

(6R,S)-folinic acid [2] = variants of: B1; assay: normalized RNA/DNA level without ligand (relative to sTRSVctl = 100) (log10 (% of sTRSVctl)); HEK293T overexpressing SLC46A1; higher = less ribozyme self-cleavage, higher mRNA level; details: without (6R,S)-folinic acid; ligand present: no
Method in brief: (§2)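 HEK293T cells received ligand, where used, 1 h before being transfected with 4 µg per 6-well well of library plasmids encoding reporter-linked ribozyme switches. After 72 h, RNA was extracted with EDTA and sequenced. RNA level was derived from RNA reads per DNA read, normalized to a spiked-in non-cleaving sequence or the top sequences, then scaled and log-transformed. Values were ×100 then log10, the top set was 25 sequences, and the minimum was 100 DNA reads.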

(6R,S)-folinic acid [3] = variants of: B1; assay: FACS-Seq fitted mean relative fluorescence mCherry/BFP with ligand (log10 relative fluorescence); HEK293T overexpressing SLC46A1; ligand concentration (+) FACS-Seq: 6 mM; higher = higher reporter protein expression; details: with (6R,S)-folinic acid; ligand present: yes
Method in brief: as §1

(6R,S)-folinic acid [4] = variants of: B1; assay: normalized RNA/DNA level with ligand (relative to sTRSVctl = 100) (log10 (% of sTRSVctl)); HEK293T overexpressing SLC46A1; ligand concentration (+) RNA-Seq: 6 mM; higher = less ribozyme self-cleavage, higher mRNA level; details: with (6R,S)-folinic acid; ligand present: yes
Method in brief: as §2

| Variant | FACS-Seq fitted mean (log10) ((6R,S)-folinic acid [1]) | normalized RNA/DNA level without ligand (log10) ((6R,S)-folinic acid [2]) | FACS-Seq fitted mean (log10) ((6R,S)-folinic acid [3]) | normalized RNA/DNA level with ligand (log10) ((6R,S)-folinic acid [4]) |
| --- | --- | --- | --- | --- |
| ACGGAU | 0.261 ± 0.068 | 1.936 ± 0.017 | 0.344 ± 0.042 | 2.01 ± 0.037 |
| UCGAGU | 0.379 ± 0.014 | 1.966 ± 0.014 | 0.483 ± 0.24 | 2.0199 ± 0.0014 |
| GCGCAC | 0.472 ± 0.12 | 1.99 ± 0.007 | 0.311 ± 0.17 | 2.01 ± 0.04 |
| UCCACG | 0.0965 ± 0.072 | 1.921 ± 0.0076 | 0.23 ± 0.091 | 2.01 ± 0.05 |
| ACCGAG | 0.326 ± 0.018 | 1.893 ± 0.018 | 0.47 ± 0.072 | 2.01 ± 0.024 |
| ACCGAA | 0.0903 ± 0.11 | 2.013 ± 0.0085 | -0.117 ± 0.18 | 2.03 ± 0.043 |
| CCGAGC | 0.201 ± 0.25 | 2.049 ± 0.0044 | 0.357 ± 0.22 | 2.01 ± 0.03 |
| CCCGGU | 0.139 ± 0.18 | 2.023 ± 0.0033 | 0.0649 ± 0.052 | 2.02 ± 0.029 |
| UCGGCC | 0.562 ± 0.15 | 2.098 ± 0.0059 | 0.476 ± 0.036 | 2.043 ± 0.011 |
| UCGGCU | 0.288 ± 0.09 | 2.08 ± 0.024 | 0.415 ± 0.31 | 2.06 ± 0.053 |
| GCCGAA | 0.247 ± 0.078 | 2.011 ± 0.0054 | 0.486 ± 0.16 | 2.05 ± 0.022 |
| GCCGAG | 0.418 ± 0.066 | 1.968 ± 0.005 | 0.538 ± 0.22 | 2.016 ± 0.02 |
| ACCCGA | 0.249 ± 0.044 | 2.017 ± 0.016 | 0.537 ± 0.076 | 2.03 ± 0.044 |
| UCGAUG | 0.26 ± 0.021 | 1.797 ± 0.015 | 0.486 ± 0.017 | 1.97 ± 0.039 |
| UCGAUA | 0.597 ± 0.085 | 1.987 ± 0.0049 | 0.69 ± 0.34 | 2.02 ± 0.026 |
| GCAUUA | 0.539 ± 0.07 | 1.995 ± 0.011 | 0.484 ± 0.1 | 2.03 ± 0.028 |
| GCCAGC | 0.269 ± 0.003 | 2.0142 ± 0.00072 | 0.102 ± 0.14 | 2.02 ± 0.038 |
| GCCAGA | 0.385 ± 0.028 | 2.019 ± 0.017 | 0.278 ± 0.36 | 2.03 ± 0.021 |
| GCCAGG | 0.43 ± 0.14 | 1.982 ± 0.0037 | 0.666 ± 0.18 | 2.002 ± 0.015 |
| ACGACA | -0.43 ± 0.011 | 2.015 ± 0.0095 | -0.351 ± 0.72 | 2.045 ± 0.019 |
| ACGACC | 0.728 ± 0.055 | 2.066 ± 0.015 | 0.641 ± 0.33 | 2.083 ± 0.02 |
| ACGACG | 0.261 ± 0.092 | 1.93 ± 0.021 | 0.213 ± 0.08 | 2.0313 ± 0.0019 |
| CCCUUC | 0.28 ± 0.13 | 2.141 ± 0.0043 | 0.0122 ± 0.3 | 2.05 ± 0.035 |
| CCGGUU | 0.218 ± 0.017 | 2.038 ± 0.016 | -0.22 ± 0.1 | 2.01 ± 0.018 |

| Variant | FACS-Seq fitted mean (log10) ((6R,S)-folinic acid [1]) | normalized RNA/DNA level without ligand (log10) ((6R,S)-folinic acid [2]) | FACS-Seq fitted mean (log10) ((6R,S)-folinic acid [3]) | normalized RNA/DNA level with ligand (log10) ((6R,S)-folinic acid [4]) |
| --- | --- | --- | --- | --- |
| UCCUUG | 0.0329 ± 0.028 | 1.85 ± 0.021 | 0.189 ± 0.026 | 1.99 ± 0.033 |
| CCCCUA | 0.532 ± 0.01 | 2.052 ± 0.0066 | 0.388 ± 0.34 | 2.06 ± 0.034 |
| CCCCUG | 0.237 ± 0.046 | 2.063 ± 0.0031 | 0.0558 ± 0.16 | 2.053 ± 0.0049 |
| UCGGAG | 0.429 ± 0.14 | 1.74 ± 0.019 | 0.837 ± 0.14 | 1.972 ± 0.0045 |
| UCGGAA | 0.527 ± 0.079 | 1.897 ± 0.0085 | 0.24 ± 0.14 | 1.99 ± 0.037 |
| UCGGAU | 0.33 ± 0.067 | 1.946 ± 0.019 | 0.517 ± 0.14 | 2.01 ± 0.024 |
| CCGAAG | -0.309 ± 0.021 | 1.869 ± 0.0079 | -0.882 ± 0.26 | 2 ± 0.039 |
| GCCUUA | 0.12 ± 0.15 | 1.98 ± 0.027 | -0.0974 ± 0.14 | 1.99 ± 0.037 |
| UCGCAU | 0.644 ± 0.045 | 1.97 ± 0.018 | 0.661 ± 0.25 | 2 ± 0.042 |
| ACGCUU | -0.382 ± 0.065 | 2.057 ± 0.018 | -0.593 ± 0.26 | 2.047 ± 0.0046 |
| ACCGUU | 0.123 ± 0.046 | 2.008 ± 0.016 | -0.259 ± 0.15 | 2.01 ± 0.038 |
| GCGAAU | 0.583 ± 0.062 | 2.014 ± 0.0084 | 0.3524 ± 0.00074 | 2.047 ± 0.016 |
| GCGAAA | 0.397 ± 0.13 | 1.977 ± 0.0092 | 0.39 ± 0.054 | 2.019 ± 0.017 |
| GCGAAG | 0.477 ± 0.0095 | 1.947 ± 0.0035 | 0.576 ± 0.049 | 2.05 ± 0.0089 |
| GCGAAC | 0.252 ± 0.064 | 1.951 ± 0.002 | 0.261 ± 0.15 | 2.04 ± 0.027 |
| GCCAUG | 0.2783 ± 0.0012 | 1.982 ± 0.019 | 0.209 ± 0.15 | 2.01 ± 0.026 |
| GCGAGA | 0.0695 ± 0.067 | 1.996 ± 0.016 | 0.197 ± 0.13 | 2.03 ± 0.018 |
| GCGAGC | 0.231 ± 0.076 | 2.014 ± 0.01 | 0.217 ± 0.14 | 2.036 ± 0.014 |
| ACCAAA | 0.632 ± 0.15 | 2.018 ± 0.012 | 0.52 ± 0.14 | 2.017 ± 0.011 |
| UCCGAG | -0.0266 ± 0.13 | 1.809 ± 0.011 | 0.131 ± 0.18 | 1.9932 ± 0.0011 |
| GCCAAA | 0.458 ± 0.071 | 2.02 ± 0.017 | 0.495 ± 0.12 | 2.029 ± 0.0061 |
| GCGCUA | 0.652 ± 0.016 | 2.067 ± 0.018 | 0.697 ± 0.34 | 2.05 ± 0.021 |
| ACGGCA | 0.0556 ± 0.13 | 2.02 ± 0.026 | 0.139 ± 0.39 | 2.04 ± 0.029 |
| UCAUUG | 0.0972 ± 0.14 | 1.876 ± 0.0017 | 0.304 ± 0.23 | 2 ± 0.05 |

| Variant | FACS-Seq fitted mean (log10) ((6R,S)-folinic acid [1]) | normalized RNA/DNA level without ligand (log10) ((6R,S)-folinic acid [2]) | FACS-Seq fitted mean (log10) ((6R,S)-folinic acid [3]) | normalized RNA/DNA level with ligand (log10) ((6R,S)-folinic acid [4]) |
| --- | --- | --- | --- | --- |
| UCCGCG | 0.277 ± 0.014 | 1.842 ± 0.0081 | 0.502 ± 0.16 | 1.96 ± 0.041 |
| ACGAAA | 0.141 ± 0.013 | 1.956 ± 0.0063 | -0.0169 ± 0.14 | 2 ± 0.04 |
| ACGAAG | 0.365 ± 0.028 | 1.834 ± 0.0094 | 0.953 ± 0.2 | 1.993 ± 0.017 |
| GCGGAG | 0.2 ± 0.093 | 1.89 ± 0.022 | 0.18 ± 0.029 | 2.01 ± 0.051 |
| UCAUGC | 0.558 ± 0.075 | 2.038 ± 0.01 | 0.485 ± 0.15 | 2.04 ± 0.031 |
| GCGAUG | 0.371 ± 0.13 | 1.959 ± 0.008 | 0.407 ± 0.055 | 2.02 ± 0.043 |
| UCCAGA | -0.0235 ± 0.25 | 2.01 ± 0.0079 | 0.123 ± 0.14 | 2 ± 0.029 |
| UCCAGG | 0.587 ± 0.23 | 1.976 ± 0.011 | 0.559 ± 0.28 | 2.01 ± 0.056 |
| ACGAUC | 0.555 ± 0.16 | 2.062 ± 0.0089 | 0.363 ± 0.0082 | 2.038 ± 0.0079 |
| UCGGUG | -0.084 ± 0.14 | 1.817 ± 0.0011 | 0.096 ± 0.055 | 2 ± 0.03 |
| ACCUAU | 0.349 ± 0.089 | 2.019 ± 0.018 | 0.644 ± 0.022 | 2.05 ± 0.033 |
| ACCUAG | 0.3338 ± 0.0029 | 1.956 ± 0.0051 | 0.37 ± 0.31 | 2.02 ± 0.03 |
| CCCUCA | 0.596 ± 0.099 | 2.0625 ± 0.0014 | 0.512 ± 0.32 | 2.04 ± 0.038 |
| UCGACU | 0.225 ± 0.028 | 2.011 ± 0.0057 | 0.701 ± 0.28 | 2.01 ± 0.022 |
| UCCGGG | 0.446 ± 0.031 | 2.02 ± 0.026 | 0.62 ± 0.13 | 2.05 ± 0.031 |
| ACGGGA | 0.247 ± 0.026 | 1.941 ± 0.0036 | 0.471 ± 0.17 | 2.01 ± 0.038 |
| ACAUGG | 0.326 ± 0.041 | 1.916 ± 0.0031 | 0.203 ± 0.12 | 2.04 ± 0.046 |
| UCGAAG | -0.0439 ± 0.018 | 1.74 ± 0.041 | -0.0157 ± 0.066 | 1.991 ± 0.0057 |
| UCGAAU | 0.347 ± 0.072 | 1.932 ± 0.013 | 0.308 ± 0.13 | 2 ± 0.044 |
| CCAUGU | 0.369 ± 0.014 | 2.035 ± 0.018 | 0.222 ± 0.16 | 2.03 ± 0.04 |
| UCCAAG | 0.322 ± 0.11 | 1.815 ± 0.0067 | 0.489 ± 0.12 | 1.992 ± 0.006 |
| UCCGUG | 0.0926 ± 0.016 | 1.78 ± 0.029 | 0.562 ± 0.067 | 1.98 ± 0.043 |
| CCCCGA | -0.3459 ± 0.0019 | 2.028 ± 0.0046 | -0.64 ± 0.16 | 2.02 ± 0.038 |
| ACGCCU | -0.804 ± 0.062 | 2.07 ± 0.011 | -1.68 ± 0.58 | 2.06 ± 0.046 |
